This is an account of results in article PMC2873280, “Generation of anti-TLR2 intrabody mediating inhibition of macrophage surface TLR2 expression and TLR2-driven cell activation” (BMC Biotechnology, 2010).

The test deals with T1, N-terminally Flag-tagged human TLR2 (Homo sapiens, UniProt O60603).
T1 construct: Toll-like receptor 2, human; also called hTLR2; Toll-like receptor 2; source: HEK293, transiently transfected, in lysate; not shown: Flag, N-terminal, kept
As to the kind of experiment: co-IP; HEK293 cells co-transfected with Flag-tagged human TLR2 and myc-tagged intrabody; lysed after 48 h (0.5% NP40, 150 mM NaCl); IP with myc-specific antibody and protein G beads, 4°C, 16 h, 5 washes; blot with tag-specific antibodies. As to conditions: partners not purified.

T1 sequence (O60603 21-784): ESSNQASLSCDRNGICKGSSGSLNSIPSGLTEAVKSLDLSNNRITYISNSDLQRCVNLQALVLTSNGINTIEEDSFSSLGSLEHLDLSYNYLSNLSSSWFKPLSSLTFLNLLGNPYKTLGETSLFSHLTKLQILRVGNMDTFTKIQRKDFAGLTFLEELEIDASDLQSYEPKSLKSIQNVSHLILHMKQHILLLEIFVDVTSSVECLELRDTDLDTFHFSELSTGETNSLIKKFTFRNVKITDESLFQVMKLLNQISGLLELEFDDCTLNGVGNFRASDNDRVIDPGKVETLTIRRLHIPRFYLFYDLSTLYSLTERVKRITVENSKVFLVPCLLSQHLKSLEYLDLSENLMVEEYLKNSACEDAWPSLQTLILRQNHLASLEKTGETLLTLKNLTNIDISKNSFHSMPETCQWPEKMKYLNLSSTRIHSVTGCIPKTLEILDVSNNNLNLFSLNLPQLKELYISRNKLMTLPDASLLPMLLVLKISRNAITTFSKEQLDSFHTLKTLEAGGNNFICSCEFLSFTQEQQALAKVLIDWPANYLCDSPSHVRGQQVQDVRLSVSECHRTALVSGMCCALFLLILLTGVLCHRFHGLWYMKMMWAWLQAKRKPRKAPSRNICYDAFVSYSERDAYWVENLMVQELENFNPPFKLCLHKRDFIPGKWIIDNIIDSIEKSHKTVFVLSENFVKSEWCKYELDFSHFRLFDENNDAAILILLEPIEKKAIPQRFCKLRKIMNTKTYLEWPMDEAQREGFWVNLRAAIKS

B1: anti-TLR2 scFv ER intrabody (αT2ib) (scFv, V domains shown)
VH: QVQLQQSGPELVNPGASVKLSCKASGFTFTTYGINWVKQGPGQGLEWIGWIYPRDGSTNFNENFKDKAALTVDTSSSTAYMELHSLTSEDSAVYFCARLTGGTFLDYWGQGTTVTVSS
VL: DIELTQSPASLAVSLGQRATISCRASESVEYYGTSLMQWYQQKPGQPPKLLIFGASNVESGVPVRFSGSGSGTDFSLNIHPVEEDDIVMYFCQQSRKLPWTFGGGTKLEIK
notes: VH of mouse mAb T2.5 (anti human/murine TLR2), amplified from hybridoma cDNA with consensus primers; synthetic 15 amino acid linker, printed as (Gly4Ser)3, between VH and VL; VL (kappa) of mouse mAb T2.5, amplified from hybridoma cDNA with consensus primers; Apparent size about 30 kDa; also called anti-TLR2 ER intrabody; TLR2 specific intrabody; source: HEK293, transiently transfected …
As for B1, the binding result was “binds”.
